The values that follow come from patent US11091559B2, “Anti-ALK antibodies and methods for use thereof” (Celldex Therapeutics, Inc., priority 2015, dated 2021).

The chains are these.
B1: Ab355: humanized anti-ALK antibody; VL SEQ ID NO: 421, VH SEQ ID NO: 433 (antibody, V domains shown)
VH: QVQLVQSGAEVAKPGASVKLSCKASGYTFTSYWMHWVKQAPGQGLEWIGYIKPSSGYTKYNQKFKDKATLTADKSTSTAYMELRSLRSDDTAVYYCARDYYGSSSWFAYWGQGTLVTVSS
VL: EIVMTQSPAFLSVTPGEKVTITCKASQNVGTNVAWYQQKPDQAPKALIYSASYRYSGVPSRFSGSGSGTDFTLTISSLEAEDAATYYCQQYNSYPYMYTFGQGTKLEIK
modifications: VH domain - Ab355; VL domain - Ab351
B2: Ab322: anti-ALK monoclonal antibody; VL SEQ ID NO: 399, VH SEQ ID NO: 400 (antibody, V domains shown)
VH: QVQLQQSGAELAKPGASVKLSCKASGYTFTNYWMHWVKQRPGQGLEWIGYINPSSGYTKYNQKFKDKATLTADKSSSTAYMQLSSLTYEDSAVYYCARDYYGSSSWFAYWGQGTLVTVSA
VL: DIVMTQSQRFMSTSVGDRVSVTCKASQNVGTNVAWYQQKPGQSPKALIYSASYRYSGVPDRFTGSGSGTDFTLTVSNVQSEDLAEYFCQQYNSYPYMYTFGGGTKLEIKR
modifications: VH domain - Ab322; VL domain - Ab322
B3: Ab328: anti-ALK monoclonal antibody; VL SEQ ID NO: 411, VH SEQ ID NO: 412 (antibody, V domains shown)
VH: B2 VH with N31S, Y88F
VL: B2 VL with R9K, Q42H, V75I, Q90R, Y98F
modifications: VH domain - Ab328; VL domain - Ab328
B4: Ab329: anti-ALK monoclonal antibody; VL SEQ ID NO: 413, VH SEQ ID NO: 414 (antibody, V domains shown)
VH: QVQLKESGPGLVKPSATLSLTCTVSGFSLTSYHVCWIRQTPGKGLEWMGVIWGDGRTTYNPPLKSRLSISRDTSKSQVFLKMSSLKTEDTATYYCARATMTGHGDAWGQGASVTVSS
VL: DIQMTQSPASLSASLEEIVTITCQASQDIDNYLSWYQQKPGKSPHLLIHSATSLADGVPSRFSGGRSGTQFSLKINRLQVEDTGIYYCLQHYSGWTFGGGTKLELKR
modifications: VH domain - Ab329; VL domain - Ab329
B5: Ab325: anti-ALK monoclonal antibody; VL SEQ ID NO: 405, VH SEQ ID NO: 406 (antibody, V domains shown)
VH: QVQLQQSGAELVKPGASVKISCKASGYAFSSYWMNWVKQRPGKGLEWIGQIYPGDGDTNYNGKFKGKATLTADKSSSTAYMQLSSLTSEDSAVYFCARWYYGSYYAMDYWGQGTSVTVSS
VL: DIQMTQTTSSLSASLGDRVTISCRASQDISNYLNWYQQKPDGTVKLLIYYTSRLHSGVPSRFSGSGSGTDYSLTISNLEQEDIATYFCQQGNTLPRTFGGGTKLEIKR
modifications: VH domain - Ab325; VL domain - Ab325
B6: Ab332: anti-ALK monoclonal antibody; VL SEQ ID NO: 419, VH SEQ ID NO: 420 (antibody, V domains shown)
VH: EVQLQQSGPELVKPGTSVKISCKASGYTFTDYYMNWMKQSHGKSLEWIGDINPNNGVTSYNQKFKGKATLTVDKSSSTAYMELRSLTSEDSAVYYCAREDYGSNYFDYWGQGTTLTVSS
VL: DIVLTQSPASLAVSLGQRATISCKASQSVDYDGDSYMNWYQQKPGQPPKLLIYAASNLESGIPARLSGSGSGTDFTLNIHPVEEEDAATYYCQQSNEDPPTFGGGTKLEIRR
modifications: VH domain - Ab332; VL domain - Ab332
B7: Ab320: anti-ALK monoclonal antibody; VL SEQ ID NO: 395, VH SEQ ID NO: 396 (antibody, V domains shown)
VH: QVQLQQSGAELVKPGASVKISCKASGYAFSSYWMNWVKQRPGKGLEWIGQIYPGDGDTNYNGKFKGKATLTADKSSSTAYMQLSSLTSEDSAVYFCASYYYGSKAYWGQGTLVTVSA
VL: DIQMTQSPASLAASVGETVTITCRASENIYYSLAWYQQKQGKSPQLLIYNANSLEDGVPSRFSGSGSGTQYSMKINSMQPEDTATYFCKQAYDVPFTFGSGTKLEIKR
modifications: VH domain - Ab320; VL domain - Ab320
B8: Ab330: anti-ALK monoclonal antibody; VL SEQ ID NO: 415, VH SEQ ID NO: 416 (antibody, V domains shown)
VH: EVQVVETGGGVVQPGKSLEITCATSGLTFSTAWMYWVRQSSDRRLEWIARIKDKSNKFASDYVESVRGRFTISRDDSRSSVYLQMNNLKEEDTATYYCTTSYGYAWGQGVMVTVSS
VL: DIQMTQSPSSMSASLGDRVTITCQASQDIGNYLIWFQQKPGKSPRPLIYYATNLANGVPSRFSGSRSGSEYSLTITSLESEDMADYHCLQYKQHLTFGSGTKLEIER
modifications: VH domain - Ab330; VL domain - Ab330
B9: Ab331: anti-ALK monoclonal antibody; VL SEQ ID NO: 417, VH SEQ ID NO: 418 (antibody, V domains shown)
VH: B8 VH with K57N
VL: B8 VL with V19I
modifications: VH domain - Ab331; VL domain - Ab331
B10: Ab437: humanized anti-ALK antibody; VL SEQ ID NO: 428, VH SEQ ID NO: 431 (antibody, V domains shown)
VH: B1 VH with Q1E, A12K, A16T, Y32S, W33A, H35Q, R84S, D89E
VL: EIVMTQSQATMSTSVGERATLSCKASQNVGTNVAWYQQKPGQSPKALIYGASTRATGVPARFSGSGSGTDFTLTISSVEPEDFAVYYCQQYNSYPYMYTFGQGTKLEIK
modifications: VH domain - Ab353; VL domain - Ab435

Substitutions are numbered along the chain they refer to.

C-terminal region of human ALK ECD (T637-S1038), sequence (Q9UM73 19-1620): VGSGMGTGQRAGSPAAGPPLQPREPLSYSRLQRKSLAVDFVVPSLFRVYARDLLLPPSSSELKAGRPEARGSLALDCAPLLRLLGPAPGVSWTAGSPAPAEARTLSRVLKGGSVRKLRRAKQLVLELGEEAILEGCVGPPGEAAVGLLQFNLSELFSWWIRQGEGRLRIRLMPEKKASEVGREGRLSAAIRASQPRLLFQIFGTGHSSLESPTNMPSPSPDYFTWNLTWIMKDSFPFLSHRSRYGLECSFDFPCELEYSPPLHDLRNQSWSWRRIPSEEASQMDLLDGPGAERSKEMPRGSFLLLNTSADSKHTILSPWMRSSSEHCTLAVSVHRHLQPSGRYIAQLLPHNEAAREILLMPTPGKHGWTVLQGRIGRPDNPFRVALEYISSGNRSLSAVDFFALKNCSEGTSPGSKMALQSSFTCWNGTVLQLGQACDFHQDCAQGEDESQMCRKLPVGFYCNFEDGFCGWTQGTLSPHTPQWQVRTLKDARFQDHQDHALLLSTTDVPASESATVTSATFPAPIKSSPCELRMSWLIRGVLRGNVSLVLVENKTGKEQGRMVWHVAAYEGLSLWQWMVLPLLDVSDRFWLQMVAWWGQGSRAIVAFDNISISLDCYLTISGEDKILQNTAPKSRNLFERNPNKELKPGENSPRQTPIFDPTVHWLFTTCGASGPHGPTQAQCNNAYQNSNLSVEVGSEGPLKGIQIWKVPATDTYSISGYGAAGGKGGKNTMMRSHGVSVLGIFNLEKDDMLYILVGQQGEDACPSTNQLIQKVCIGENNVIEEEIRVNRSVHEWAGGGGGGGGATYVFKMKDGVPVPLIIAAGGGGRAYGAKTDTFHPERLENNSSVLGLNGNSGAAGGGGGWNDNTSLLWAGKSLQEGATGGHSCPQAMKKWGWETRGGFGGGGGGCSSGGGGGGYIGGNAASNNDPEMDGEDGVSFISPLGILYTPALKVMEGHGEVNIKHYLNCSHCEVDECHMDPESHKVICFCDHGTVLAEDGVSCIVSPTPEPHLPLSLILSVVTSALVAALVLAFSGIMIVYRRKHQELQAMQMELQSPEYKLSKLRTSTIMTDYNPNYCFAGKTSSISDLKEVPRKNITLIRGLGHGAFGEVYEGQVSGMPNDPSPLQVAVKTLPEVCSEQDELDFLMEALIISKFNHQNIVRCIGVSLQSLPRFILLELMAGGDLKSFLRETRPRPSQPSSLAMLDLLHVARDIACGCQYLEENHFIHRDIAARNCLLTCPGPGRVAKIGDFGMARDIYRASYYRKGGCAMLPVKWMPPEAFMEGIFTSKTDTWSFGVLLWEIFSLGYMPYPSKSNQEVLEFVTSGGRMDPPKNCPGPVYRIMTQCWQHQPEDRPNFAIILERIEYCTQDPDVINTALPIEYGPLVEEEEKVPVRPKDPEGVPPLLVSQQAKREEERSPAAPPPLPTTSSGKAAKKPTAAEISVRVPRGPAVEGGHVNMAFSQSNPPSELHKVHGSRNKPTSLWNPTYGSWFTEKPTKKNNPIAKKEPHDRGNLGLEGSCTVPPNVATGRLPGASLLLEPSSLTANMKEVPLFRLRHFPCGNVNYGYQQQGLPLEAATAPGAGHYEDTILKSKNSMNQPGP
murine ALK (purified mouse ALK antigen), sequence (P97793 19-1042 limits assumed): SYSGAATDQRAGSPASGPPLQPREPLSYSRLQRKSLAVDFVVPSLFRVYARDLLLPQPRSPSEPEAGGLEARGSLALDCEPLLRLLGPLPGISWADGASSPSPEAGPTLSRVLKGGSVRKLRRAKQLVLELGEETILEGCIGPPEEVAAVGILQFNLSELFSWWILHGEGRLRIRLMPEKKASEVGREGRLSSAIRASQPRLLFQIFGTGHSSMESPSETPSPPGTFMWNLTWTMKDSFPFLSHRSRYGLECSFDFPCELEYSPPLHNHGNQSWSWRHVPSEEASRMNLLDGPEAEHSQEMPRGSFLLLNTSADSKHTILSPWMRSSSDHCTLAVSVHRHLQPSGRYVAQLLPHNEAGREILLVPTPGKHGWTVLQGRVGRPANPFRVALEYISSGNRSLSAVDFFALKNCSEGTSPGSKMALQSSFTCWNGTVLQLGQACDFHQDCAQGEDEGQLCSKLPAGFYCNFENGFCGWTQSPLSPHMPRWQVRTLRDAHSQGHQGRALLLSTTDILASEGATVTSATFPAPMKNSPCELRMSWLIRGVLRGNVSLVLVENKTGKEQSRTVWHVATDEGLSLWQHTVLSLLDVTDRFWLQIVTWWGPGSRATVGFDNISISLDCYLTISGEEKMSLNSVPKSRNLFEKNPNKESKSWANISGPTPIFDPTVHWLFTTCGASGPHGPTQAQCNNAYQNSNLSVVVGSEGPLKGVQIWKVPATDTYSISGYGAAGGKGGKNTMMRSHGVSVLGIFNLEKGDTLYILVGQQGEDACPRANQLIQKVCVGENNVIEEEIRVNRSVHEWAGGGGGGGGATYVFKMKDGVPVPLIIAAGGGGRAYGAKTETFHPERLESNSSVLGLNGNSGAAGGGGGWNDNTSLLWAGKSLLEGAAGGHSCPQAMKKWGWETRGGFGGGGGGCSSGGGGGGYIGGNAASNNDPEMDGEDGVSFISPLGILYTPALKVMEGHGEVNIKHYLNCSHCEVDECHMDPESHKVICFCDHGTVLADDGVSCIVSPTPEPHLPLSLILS
human ALK (hALK, purified ALK protein), sequence (Q9UM73 with tags, fused parts or gaps): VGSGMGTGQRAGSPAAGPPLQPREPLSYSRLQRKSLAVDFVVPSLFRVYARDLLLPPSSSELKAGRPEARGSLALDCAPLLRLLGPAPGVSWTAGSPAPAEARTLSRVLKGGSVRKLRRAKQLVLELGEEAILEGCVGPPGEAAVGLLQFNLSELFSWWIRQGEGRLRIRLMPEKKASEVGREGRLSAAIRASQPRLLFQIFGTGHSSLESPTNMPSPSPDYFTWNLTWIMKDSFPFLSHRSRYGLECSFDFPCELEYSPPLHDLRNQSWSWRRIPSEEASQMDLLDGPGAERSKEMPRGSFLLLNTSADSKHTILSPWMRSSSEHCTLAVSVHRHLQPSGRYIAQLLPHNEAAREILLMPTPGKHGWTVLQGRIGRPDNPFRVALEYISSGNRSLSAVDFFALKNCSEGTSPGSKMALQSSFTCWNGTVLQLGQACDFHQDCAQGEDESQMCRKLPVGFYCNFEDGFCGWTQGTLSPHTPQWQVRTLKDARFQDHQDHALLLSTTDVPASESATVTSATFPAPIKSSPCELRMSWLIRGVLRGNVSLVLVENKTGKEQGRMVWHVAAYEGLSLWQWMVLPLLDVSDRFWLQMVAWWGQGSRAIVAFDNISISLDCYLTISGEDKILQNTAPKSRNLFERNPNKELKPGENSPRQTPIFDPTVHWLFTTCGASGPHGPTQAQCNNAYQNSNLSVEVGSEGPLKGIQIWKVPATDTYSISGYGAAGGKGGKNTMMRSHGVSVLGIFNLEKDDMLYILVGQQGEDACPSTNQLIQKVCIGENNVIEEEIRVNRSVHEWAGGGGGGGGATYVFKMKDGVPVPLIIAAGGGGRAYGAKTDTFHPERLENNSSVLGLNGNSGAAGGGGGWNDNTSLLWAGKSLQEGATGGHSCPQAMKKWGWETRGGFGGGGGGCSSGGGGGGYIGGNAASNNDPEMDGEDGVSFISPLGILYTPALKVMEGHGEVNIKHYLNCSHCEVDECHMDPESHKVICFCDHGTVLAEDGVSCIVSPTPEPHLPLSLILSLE

One data set relates to ALK on the surface of NB1 cells. Kind of data set: KD determination by flow cytometry on NB1 cells. The format is binding. To be noted: NB1 (human) cells, FACS, mean. As to the method: FIG. 3 depicts the apparent affinities (KD) of ALK antibodies for ALK expression on the surface of NB1 cells. KD was determined by flow cytometry. Titration of each antibody on NB1 cells for 2-4 hours at 4° C. was followed by incubation with a fluorescently-labeled secondary antibody. The normalized mean fluorescent intensity […] shown as “% Max binding” was plotted as a function of antibody concentration.
Flow cytometry was utilized to measure the affinity at steady state (KD) with which different ALK antibodies bind to ALK on the surface of NB1 cells (FIG. 3). Titration of each antibody on NB1 cells for 2-4 hours at 4° C. was followed by incubation with a fluorescently-labeled secondary antibody. The normalized mean fluorescent intensity (MFI) shown as “% Max binding” was plotted as a function of antibody concentration. The data were fit to a one site binding isotherm using GraphPad Prism, from which affinity values were derived.
(§1) Amino acid residues that differ between rat ALK and mouse ALK are boxed. KD values for both NB1 (human) cells and Neuro2a (mouse) cells were also determined.
The molecule B1 displayed a Kd of 0.00126 µM.

A further data set has as its target murine ALK (purified mouse ALK antigen) (Mus musculus, UniProt P97793). The data set is described as follows: Mouse ALK cross-reactivity, solid-state ELISA. Further details: key: − none; + weak; ++ moderate; +++ strong. In kind it is binding. To be noted: cross-reactivity with murine ALK. Here is the method: Purified mAbs were evaluated for their ability to bind murine ALK by solid-state ELISA, or flow cytometry on Neuro-2a cells that express low levels of endogenous murine ALK. […]
In the case of B2, the “mouse ALK binding” value is listed as “−”.
Consider B3, for which the “mouse ALK binding” value is “+++”.
Take B4: the “mouse ALK binding” value is listed as “+++”.
The same measure, in the same setting: then B5, with “+”; and B6, with “+”.
Still for that read-out and setting: then B7, with “++”; and B8, with “+”; and B9, with “−”.

The next data set has as its target C-terminal region of human ALK ECD (T637-S1038) (Homo sapiens, UniProt Q9UM73). The data set is described as follows: Competitive binding assay (epitope binning) by flow cytometry. The note with it: antibodies to the C-terminal region. As to the method:
Antibodies that bind to the C-terminal region of human ALK ECD (T637-S1038) were further characterized using a competitive binding assay. A pairwise matrix approach was used whereby each antibody was fluorescently labeled and tested for its ability to bind to ALK-expressing cells pre-incubated with an unlabeled antibody. The ability of both antibodies to bind the C-terminal domain simultaneously was tested via flow cytometry. If both antibodies bound simultaneously, they were put into different bins and considered to belong to a separate epitope class.
In the case of B2, the “Bin/Domain (bin)” value is recorded as 2.
For B3, the “Bin/Domain (bin)” value is recorded as 2.
On the same count and under the same terms, then B5, with 1; and B7, with 1.

The subject of the next data set is ALK (basal phosphorylation in NB1 cells). Kind of data set: Western blot of ALK phosphorylation in NB1 cells. The format is cell-based, human. The note with it: effect in words. As to the method:
Lysed cells were subjected to SDS-PAGE, transferred to nitrocellulose and immunoblotted with antibodies against total, and phospho-specific ALK, AKT, and MAPK. FIG. 4B depicts an ELISA of NB1 cells grown in media with reduced serum and treated with 30-100 nM of each antibody for 1-2 hours. Cell lysates were incubated on ELISA plates with an anti-ALK antibody, followed by incubation with a pan phosphotyrosine antibody coupled to HRP.
Cell lysates were subjected to SDS-PAGE and transferred to nitrocellulose. Immunoblotting was performed with antibodies against total, and phospho-specific ALK, AKT, and MAPK (purchased from Cell Signaling and utilized per manufacturer's instructions). HRP (horse radish peroxidase)-conjugated secondary antibodies (Thermo Scientific, Waltham, Mass.) were used along with Supersignal West Pico Chemiluminescent Substrate (Thermo Scientific, Waltham, Mass.) to image blots.
Anti-ALK monoclonal antibodies generated in Example 1 were evaluated via Western blotting for their ability to activate or inhibit basal levels of ALK phosphorylation in NB1 cells (FIG. 4A). A subset of ALK antibodies stimulated ALK tyrosine phosphorylation and a different subset of antibodies inhibited basal levels of ALK phosphorylation. See also Table 18, below. […] That is, ALK antibodies that stimulated ALK tyrosine phosphorylation increased MAPK and AKT phosphorylation, whereas ALK antibodies that inhibited ALK tyrosine phosphorylation decreased basal levels of MAPK and AKT phosphorylation (FIG. 4A). Similar results were obtained in ELISA-based ALK phosphorylation assays from lysates of NB1 cells treated with ALK antibodies (FIG. 4B).
B2: the ALK phosphorylation result is on record as “inhibitor”.
The same measure, in the same setting: with B3 the entry was “weak agonist”; with B4, “weak agonist”; with B6, “weak agonist”.
Same read-out and setting: then B7, with “no effect”.
As to B8, the ALK phosphorylation result was “inhibitor”.
Regarding B9, the ALK phosphorylation entry was “inhibitor”.

In the next data set the test system is ALK (total protein levels in NB1 cells). Kind of data set: ALK turnover (total protein levels) by Western blot, 24 hour treatment of NB1 cells. In kind it is cell-based, human. Further details: key: − none; + weak; ++ moderate; +++ strong.
Conditions: not given
An excerpt: FIG. 5 depicts a Western blot of a panel of ALK antibodies.
See also Table 18, below.
For the molecule B2, the ALK turnover result was “−”.
On the same count and under the same terms, then B3, with “+++”; and B5, with “++”; and B7, with “−”.

The target in the next data set is human ALK (hALK, purified ALK protein) (Homo sapiens, UniProt Q9UM73). The data set is described as follows: Monovalent affinity of humanized antibodies, BLitz System, human ALK. The format is binding. To be noted: BLitz, purified ALK protein at 70 μg/mL, single binding site fit; antibody by plate position of Table 19. As to the method:
The humanized ALK antibodies designed in Example 1 were tested for monovalent affinity, wherein the kinetic data are fit to a single binding site equation to obtain relative affinity values.
Kinetic measurements of the monovalent affinity of the 96 humanized ALK antibody variants (Ab351-Ab446) were collected. Affinity ranking was performed using a BLitz® System (ForteBio, Menlo Park, Calif.). Humanized anti-ALK antibodies were immobilized at 0.5 mg/mL using Protein A tips. Once baseline stability was ensured, purified ALK proteins at 70 μg/mL were added. The resulting kinetic data were fit to a single binding site equation, from which the quoted monovalent KD values were derived.
as §1
As for B10, the Kd was found to be 6080 µM.

Another data set concerns the target T1, cell surface mALK on Neuro2a cells (Mus musculus, UniProt P97793).
T1 construct: Neuro-2a cells that express low levels of endogenous murine ALK; endogenous in cells; host or cells: Neuro-2a (Neuro2a) mouse neuroblastoma cells
Kind of data set: KD of humanized antibodies on Neuro2a (mouse) cells. In kind it is binding. To be noted: FACS, mean. As to the method: as §1
As to B1, the Kd was 0.0051 µM.
